Experimental data taken from patent publication US20260139017A1 (GENERAL HOSPITAL, published 2026).

T1: Neuropilin 1 (NRP1), R&D 3870-N1-025 (UniProt O14786-2 22-644, biotinylated at a 1:2 molar ratio)
T1 construct: Biotinylated and immobilised on streptavidin biosensor tips; also called Neurophilin 1
T1 sequence (looked up): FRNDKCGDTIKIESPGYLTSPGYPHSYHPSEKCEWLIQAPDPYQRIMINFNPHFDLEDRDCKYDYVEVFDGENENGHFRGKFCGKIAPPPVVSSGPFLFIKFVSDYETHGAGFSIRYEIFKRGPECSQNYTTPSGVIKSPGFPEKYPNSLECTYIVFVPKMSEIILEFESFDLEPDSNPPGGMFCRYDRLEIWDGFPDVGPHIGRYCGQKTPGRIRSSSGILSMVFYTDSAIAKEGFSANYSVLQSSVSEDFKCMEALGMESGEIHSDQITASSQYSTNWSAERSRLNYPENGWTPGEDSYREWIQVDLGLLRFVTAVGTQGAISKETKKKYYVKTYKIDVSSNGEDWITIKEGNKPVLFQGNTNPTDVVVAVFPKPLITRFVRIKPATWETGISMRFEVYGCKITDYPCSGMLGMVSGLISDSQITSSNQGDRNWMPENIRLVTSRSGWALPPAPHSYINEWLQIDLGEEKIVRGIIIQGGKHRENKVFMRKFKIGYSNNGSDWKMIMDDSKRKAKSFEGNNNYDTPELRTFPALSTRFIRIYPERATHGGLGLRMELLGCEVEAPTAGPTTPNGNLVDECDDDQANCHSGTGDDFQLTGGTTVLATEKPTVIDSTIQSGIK

T2: ApoEr2 (TP320903, OnGene) (UniProt Q14114 33-963, limits assumed)
T2 sequence (looked up): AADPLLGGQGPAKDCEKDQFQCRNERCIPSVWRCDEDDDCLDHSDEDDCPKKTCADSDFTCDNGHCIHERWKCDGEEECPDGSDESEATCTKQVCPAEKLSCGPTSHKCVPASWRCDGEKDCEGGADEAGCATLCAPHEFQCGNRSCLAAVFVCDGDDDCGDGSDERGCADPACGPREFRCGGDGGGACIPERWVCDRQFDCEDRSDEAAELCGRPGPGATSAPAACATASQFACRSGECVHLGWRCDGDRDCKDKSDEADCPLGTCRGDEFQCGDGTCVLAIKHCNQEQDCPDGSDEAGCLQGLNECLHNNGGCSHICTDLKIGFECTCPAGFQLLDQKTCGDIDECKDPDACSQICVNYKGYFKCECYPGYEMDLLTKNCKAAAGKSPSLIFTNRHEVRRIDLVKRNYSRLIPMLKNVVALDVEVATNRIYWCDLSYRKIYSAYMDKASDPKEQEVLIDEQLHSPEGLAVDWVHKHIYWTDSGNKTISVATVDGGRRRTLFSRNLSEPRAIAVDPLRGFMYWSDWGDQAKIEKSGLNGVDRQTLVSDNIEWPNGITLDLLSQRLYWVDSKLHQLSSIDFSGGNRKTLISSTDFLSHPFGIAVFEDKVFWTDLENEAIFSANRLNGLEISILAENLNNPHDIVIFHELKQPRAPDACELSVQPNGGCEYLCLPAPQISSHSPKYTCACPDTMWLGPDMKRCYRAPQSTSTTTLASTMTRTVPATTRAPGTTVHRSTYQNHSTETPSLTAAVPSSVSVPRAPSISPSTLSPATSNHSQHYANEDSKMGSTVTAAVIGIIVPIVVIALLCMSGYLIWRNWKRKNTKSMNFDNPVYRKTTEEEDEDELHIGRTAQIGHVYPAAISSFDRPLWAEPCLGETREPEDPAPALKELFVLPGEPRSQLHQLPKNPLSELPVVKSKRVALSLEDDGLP


Columns and labels:
[1] = molecular target: Amyloid beta (Abeta42; beta-Amyloid (1-42)) (UniProt P05067 672-713); experiment: cell-based or functional assay
[2] = molecular target: T1, Neuropilin 1 (NRP1), R&D 3870-N1-025; experiment: BLI, NRP1 on biosensor
Protocol: (§1) Bio-layer interferometry (BLI) was used to assess NRP1-protein kinetics at 30° C. and 1000 rpm agitation using previously published methods. 1 mg/mL NRP1 (R&D 3870-N1-025) was biotinylated at a 1:2 molar ratio, desalted, and immobilized on the SA biosensor tip (Pall ForteBio) surface. This was followed by 1) 180 seconds baseline buffer diluent, 2) loading of the ligand (NRP1), 3) 180 seconds baseline buffer diluent, 4) 240 seconds association (analyte), and 5) 300 seconds disassociation in assay buffer. Assay buffer: SD Buffer (pH7.4 PBS, 0.05% tween20, 0.01% BSA).
(§2) The experimental data were fit with the 1:1 binding model and analyzed with global fitting using Octet Data Analysis software to calculate KD.

[3] = molecular target: T1, Neuropilin 1 (NRP1), R&D 3870-N1-025; experiment: BLI (Octet), biotinylated NRP1 on SA biosensor, 1:1 global fit
Protocol: as §1, §2

[4] = molecular target: T2, ApoEr2 (TP320903, OnGene); experiment: ELISA on coated receptor
Protocol: (§3) Enzyme-linked immunosorbent assay (ELISA) was used to quantify changes in binding of RELN variants (media-derived full-length or CTR-RELN) to either VLDLr or ApoEr2 following an optimized version of a previously published protocol (6). Briefly, ELISA strips (DY008, R&D Systems) were coated with one ng/μL (100 μL/well) of VLDLr (8444-VL, R&D) or ApoEr2 (TP320903, OnGene) receptors diluted in 25 mM Tris HCl, 140 mM NaCl, […], two mM CaCl₂), pH 7.4 (TBS-C buffer). After 18 h at four ° C. incubation, plates were blocked one h with three % BSA (22070008-6, Bioworld), 0.05% Tween-20 (Sigma Aldrich) TBS-C buffer. We assessed binding via incubation with 100 μL/well of serial dilutions of recombinant RELN protein (Ser1221-Gln2666, 8546-MR-050, R&D) or RELN variants in TBS-C buffer for one hour at room temperature. For detection, we used goat anti-mouse RELN primary antibody (LS-C793521-100, LS-Bio, 1:2,000, 100 μL/well) as primary antibody for one h at R.T. and (1:10,000; 100 μL/well, donkey anti-goat IgG H&L, HRP, ab6885, Abcam) as secondary antibody for 30 min. at R.T. Between each of the previous steps, plates were washed four times with TBS-C buffer (200 μL/well). Plates were washed three times prior to initiating the colorimetric reaction (DY008, R&D Systems). Stop solution (50 μL/well, DY008, R&D Systems) was added upon five min. incubation and the absorbance of the samples was measured at 450 nm using the Synergy 2 microplate reader (BioTek Instruments). Processing and analysis of the data was done using Gen5 1.11 software and GraphPad Prism, respectively.

VLDLr (8444-VL, R&D) = VLDLr (8444-VL, R&D) (UniProt P98155 28-797, limits assumed); experiment: ELISA on coated receptor
Protocol: as §3

Chain of Amyloid beta (Abeta42; beta-Amyloid (1-42)) (P05067 672-713 limits assumed): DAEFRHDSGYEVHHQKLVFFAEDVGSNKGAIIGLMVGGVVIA

Kd [3] [nM]	koff [3] [s⁻¹]	kon [3] [M⁻¹ s⁻¹]	binding result [4]	binding result (VLDLr (8444-VL, R&D))	Binder	further results
					RKQNYMMNFSRQHGLRDFYNRRRR [Reelin CTR peptide H3447D short]	Thioflavin T fluorescence assay of Abeta aggregation, fold aggregation against H3447K short [1]: ~3 fold
610	0.00573	9400			Fc-fusion CTR-RELN WT (184I pfcn-huIgG2-C-termH3447WT) (Fc fusion, also called Fc-WT) APLERKSSVECPPCPAPPVAGPSVFLFPPKPKDTLMISRTPEVTCVVVDVSHEDPEVQFNWYVDGVEVHNAKTKPREEQFNSTFRVVSVLTVVHQDWLNGKEYKCKVSNKGLPAPIEKTISKTKGQPREPQVYTLPPSREEMTKNQVSLTCLVKGFYPSDIAVEWESNGQPENNYKTTPPMLDSDGSFFLYSKLTVDKSRWQQGNVFSCSVMHEALHNHYTQKSLSLSPGARTSTRKQNYMMNFSRQHGLRHFYNRRRR	fold less affinity than VEGF [2]: 100 fold
79.3	0.00102	12900			Fc-fusion CTR-RELN H3447R (184J pfcn-huIgG2-C-termH3447R) (Fc fusion, also called Fc-H3447R) APLERKSSVECPPCPAPPVAGPSVFLFPPKPKDTLMISRTPEVTCVVVDVSHEDPEVQFNWYVDGVEVHNAKTKPREEQFNSTFRVVSVLTVVHQDWLNGKEYKCKVSNKGLPAPIEKTISKTKGQPREPQVYTLPPSREEMTKNQVSLTCLVKGFYPSDIAVEWESNGQPENNYKTTPPMLDSDGSFFLYSKLTVDKSRWQQGNVFSCSVMHEALHNHYTQKSLSLSPGARTSTRKQNYMMNFSRQHGLRRFYNRRRR	fold affinity against wild-type CTR-RELN [2]: 10 fold
			no binding	no binding	RKQNYMMNFSRQHGLRHFYNRRRRSLRRYP (also called WT long; C-terminal RELN WT uncleaved) [C-terminal region of RELN (CTR-RELN) WT recombinant peptide, long]	
			no binding	no binding	RKQNYMMNFSRQHGLRRFYNRRRRSLRRYP (also called H3447R long; C-terminal RELN H3447R uncleaved) [C-terminal region of RELN (CTR-RELN) H3447R recombinant peptide, long]	
